Results taken from article PMC5805711 (Scientific Reports, 2018).

Assays:
[1] = biological target: T1, ubiquitin phosphorylated at serine-65 (pUb) (UniProt P0CG48 1-76, phosphoserine at 65); assay: NMR titration; 15N-labeled Ub variant titrated with unlabeled UBA; amide CSPs in 1H-15N spectra, global fit to a single-site binding model; 23 °C, 20 mM sodium phosphate pH 6.8, 0.02% NaN3, 7% D2O; details: both partners purified
T1 construct: ubiquitin, the cut product of a ubiquitin precursor, phosphorylated at S65; Uniformly 15N-labelled for NMR; In solution two conformers in slow, pH-dependent exchange: native-like pUb^nat and alternate pUb^alt; both are this one molecule; also called S65 pUb; phosphorylated Ub

[2] = biological target: T2, wild-type ubiquitin (Ub^WT) (UniProt P0CG48 1-76); assay: as above; details: both partners purified
T2 construct: ubiquitin, the cut product of a ubiquitin precursor; last residue G76; Uniformly 15N-labelled for NMR; also called WT Ub; source: grown and purified using the standard Ub purification protocol; grown in 15N-enriched minimal media for NMR

B1: ubiquitin-associated domain (UBA) of human ubiquilin-1/hPLIC1, V545Y (domain or fragment, UniProt Q9UMX0 545-586, looked up)
chain: YRFQQQLEQLSAMGFLNREANLQALIATGGDINAAIERLLGS
notes: UBA domain of human ubiquilin-1 (hPLIC1) with V545Y; V545Y was introduced to allow concentration determination by absorbance at 280 nm; Unlabelled in the titrations; also called ubiquilin-1 UBA
[1]
  Kd: 8 ± 2.5 µM
[2]
  Kd: 4.9 ± 1.2 µM
